US9944688B2, “Non-peptidyl polymer-insulin multimer and method for producing the same” (HANMI SCIENCE CO., LTD., priority 2011, dated 2018)

Key:
[1] = Measurement of hydrodynamic volume by size exclusion chromatography; type: physicochemical; conditions: for Hydrodynamic volume: SEC Superdex 200 10/300 GL, regression line from standard proteins; for Hydrodynamic volume, times larger than monomer: hexamer versus monomer
Protocol: PEG-insulin conjugates in 20 mM HEPES buffer (pH 8.2) were mixed with a cobalt chloride solution to a ratio of cobalt to hexamer of 3:1. To convert divalent cobalt ions into trivalent cobalt ions, hydrogen peroxide corresponding to twice of the total divalent cobalt ions was added, and left at room temperature for 2 h. Thereafter, cobalt PEG-insulin hexamers were isolated by SEC (size exclusion chromatography).
Column: Superdex 200 16/60 prep grade (GE Healthcare)
Buffer: 20 mM HEPES pH 8.2+0.2 M NaCl
Hydrodynamic volume of the PEG-insulin conjugate or the cobalt PEG-insulin hexamer was measured according to the conditions described in Example 4, except that Superdex 200 10/300 GL was used as a column. The regression line was calculated from the elution volume of standard protein. Partition coefficient (Kav) is defined as follows. Kav=(Ve−V0)/(Vt−V0)
Ve represents the elution volume, V0 represents the void volume determined by Blue dextran, and Vt represents the bed volume.

[2] = Comparison of molecular size by size exclusion chromatography in DPBS; type: physicochemical; conditions: SEC, DPBS buffer
Protocol: Size exclusion chromatography was performed to indirectly predict the molecular size of subcutaneously injected insulin formulation and its size change according to natural dilution (Havelund et al., 2004). The representative commercial long-acting insulin formulations, Levemir and Lantus, were used as a control group to examine the relative molecular size of the cobalt PEG-insulin hexamer. Chromatography was performed according to the conditions described in Example 4, except that DPBS was used as a buffer solution to create subcutaneous environment.

[3] = test system: murine fibroblast 3T3-L1 differentiated into adipocyte; experiment: In vitro efficacy test: residual sugar in media of differentiated 3T3-L1 adipocytes; type: cell-based; conditions: for EC50: differentiated 3T3-L1 adipocytes, 37° C. for 24 h, residual sugar by D-Glucose assay kit
Protocol: In order to differentiate murine fibroblast 3T3-L1 into adipocyte, the cell was inoculated in a 48-well plate containing a 10% FBS/DMEM media containing dexamethasone, IBMX, and insulin at a cell density of 1.0×10^5 per well. The differentiated cells were washed with DPBS three times, and cultured in a serum-free DMEM for 4 h. […] After cultivation at 37° C. for 24 h, the residual sugar concentration in the media was measured using a D-Glucose assay kit (Megazyme), and EC50 values were calculated and shown in Table 1.

[4] = after subcutaneous injection; time for half of the drug to pass the capillary wall; cited from earlier work

| Substance | Hydrodynamic volume [1] | Hydrodynamic volume, times larger than monomer [1] | Dissociation coefficient (Kav) [2] | Elution time [2] | EC50 [3] | Relative activity ([3]; relative to human native insulin (100)) | Subcutaneous half-life, times longer than native insulin hexamer [4] |
| --- | --- | --- | --- | --- | --- | --- | --- |
| Cobalt PEG (5k)-insulin hexamer: hexamer of PEG (5k)-insulin conjugates complexed with trivalent cobalt ions | 300 kDa | approximately 5 times | 0.20 | 27.63 min |  |  |  |
| Cobalt PEG (20k)-insulin hexamer: hexamer of PEG (20k)-insulin conjugates complexed with trivalent cobalt ions | 1,600 kDa | approximately 10 times | 0.01 | 20.12 min |  |  |  |
| PEG (5k)-insulin: human native insulin mono-PEGylated with 5 k mPEG-aldehyde at the amino terminus of the B chain | 60 kDa |  |  |  | 9.48 ± 2.77 nM | 60% |  |
| PEG (20k)-insulin: human native insulin mono-PEGylated with 20 k mPEG-aldehyde at the amino terminus of the B chain |  |  |  |  | 13.6 ± 0.71 nM |  |  |
| insulin detemir |  |  |  |  |  |  | 4 times |
